Molecular target: the molecule itself
Experiment: SEC

B1: soluble, C-terminally His-tagged extracellular domain of WT JAM-A (junctional adhesion molecule-A) (domain or fragment, UniProt Q9Y624 28-238, looked up)
chain: SVTVHSSEPEVRIPENNPVKLSCAYSGFSSPRVEWKFDQGDTTRLVCYNNKITASYEDRVTFLPTGITFKSVTREDTGTYTCMVSEEGGNSYGEVKVKLIVLVPPSKPTVNIPSSATIGNRAVLTCSEQDGSPPSEYTWFKDGIVMPTNPKSTRAFSNSSYVLNPTTGELVFDPLSASDTGEYSCEARNGYGTPMTSNAVRMEAVERNVGV
**Q.** B1 was tested. Which “stoichiometry N” value did it give?
**A.** Its value is 2.

From article PMC4019489 (Molecular Biology of the Cell, 2014)
